Values belong to the binder of their own block, whether it stands above or below them.
B2: PACT C213F (recessive DYT16 mutant) (other, UniProt O75569 1-313, looked up)
chain: MSQSRHRAEAPPLEREDSGTFSLGKMITAKPGKTPIQVLHEYGMKTKNIPVYECERSDVQIHVPTFTFRVTVGDITCTGEGTSKKLAKHRAAEAAINILKANASICFAVPDPLMPDPSKQPKNQLNPIGSLQELAIHHGWRLPEYTLSQEGGPAHKREYTTICRLESFMETGKGASKKQAKRNAAEKFLAKFSNISPENHISLTNVVGHSLGFTWHSLRNSPGEKINLLKRSLLSIPNTDYIQLLSEIAKEQGFNITYLDIDELSANGQYQCLAELSTSPITVCHGSGISCGNAQSDAAHNALQYLKIIAERK
notes: N-terminal Myc or FLAG tag in co-IP; GAL4-DBD or VP16-AD fusion in mammalian two-hybrid; histidine tag in PKR activity assay
B4: PACT C77S (recessive DYT16 mutant) (other, UniProt O75569 1-313, looked up)
chain: MSQSRHRAEAPPLEREDSGTFSLGKMITAKPGKTPIQVLHEYGMKTKNIPVYECERSDVQIHVPTFTFRVTVGDITSTGEGTSKKLAKHRAAEAAINILKANASICFAVPDPLMPDPSKQPKNQLNPIGSLQELAIHHGWRLPEYTLSQEGGPAHKREYTTICRLESFMETGKGASKKQAKRNAAEKFLAKFSNISPENHISLTNVVGHSLGCTWHSLRNSPGEKINLLKRSLLSIPNTDYIQLLSEIAKEQGFNITYLDIDELSANGQYQCLAELSTSPITVCHGSGISCGNAQSDAAHNALQYLKIIAERK
notes: as for B2

What was measured:
[1] = molecular target: T1, flag-tagged dominant negative PKR mutant, K296R (UniProt P19525 1-551); assay: co-IP in HeLa cells: Myc-PACT on Myc-agarose, flag-PKR K296R detected by anti-flag blot
T1 construct: Used in the co-IP assays in HeLa cells; also called flag-PKR; flag-tagged K296R
Method: (§1) In all cases HeLa M cells were seeded at 20% confluency in 6-well dishes 24 hours prior to co-transfecting 250 ng of each flag- and/or Myc-tagged constructs using Effectene® reagent (Qiagen). Cells were harvested 24 hours post transfection and harvested in IP buffer. Whole cell extract was then immunoprecipitated overnight at 4° C. on a rotating wheel with either flag-agarose (Sigma) or Myc-agarose beads (Thermo Scientific). Immunoprecipitates were then washed 3-5 times in IP buffer followed by resuspension and boiling for 5 minutes in 1×Laemmle buffer. Samples were then resolved on 10% SDS-PAGE denaturing gels and transferred to PVDF membranes. […] The cell lysates were immunoprecipitated in 15 μL of Myc-agarose beads and resolved on 10% SDS-PAGE denaturing gels and transferred to PVDF membranes.
The immunoprecipitates were analyzed by western blot analysis with anti-flag (FIG. 4A) or anti-Myc (FIG. 4B) antibodies (co-IP panel) and with anti-Myc (FIG. 4A) or anti-flag (B) for IP panels.

[2] = molecular target: B4; assay: mammalian two-hybrid, luciferase reporter; PACT proteins as GAL4-DBD bait and VP16-AD prey
[3] = molecular target: B2; assay: co-IP in HeLa cells: flag-PACT on flag-agarose, Myc-PACT detected by anti-Myc blot
Method: as §1

[4] = molecular target: T2, PACT P222L (recessive DYT16 mutant), O75569
T2 chain: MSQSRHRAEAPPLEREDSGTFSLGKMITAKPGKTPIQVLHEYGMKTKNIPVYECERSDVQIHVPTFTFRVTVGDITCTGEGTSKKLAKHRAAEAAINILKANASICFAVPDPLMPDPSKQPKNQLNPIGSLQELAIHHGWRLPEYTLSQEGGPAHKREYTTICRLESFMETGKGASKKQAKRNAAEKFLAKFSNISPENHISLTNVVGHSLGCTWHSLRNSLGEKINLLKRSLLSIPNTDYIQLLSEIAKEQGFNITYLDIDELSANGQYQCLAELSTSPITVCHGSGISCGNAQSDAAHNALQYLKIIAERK

[5] = molecular target: T3, PACT N102S (dominant DYT16 mutant), O75569
T3 chain: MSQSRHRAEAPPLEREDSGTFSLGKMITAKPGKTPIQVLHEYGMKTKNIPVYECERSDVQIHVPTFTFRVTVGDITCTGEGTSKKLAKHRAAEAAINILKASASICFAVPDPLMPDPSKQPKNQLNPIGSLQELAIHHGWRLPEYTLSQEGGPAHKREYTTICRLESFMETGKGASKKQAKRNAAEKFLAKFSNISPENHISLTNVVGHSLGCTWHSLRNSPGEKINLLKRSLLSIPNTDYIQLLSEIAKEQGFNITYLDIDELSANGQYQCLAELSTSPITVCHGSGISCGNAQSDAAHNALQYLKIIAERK

[6] = molecular target: T4, PACT C213R (recessive DYT16 mutant), O75569
T4 chain: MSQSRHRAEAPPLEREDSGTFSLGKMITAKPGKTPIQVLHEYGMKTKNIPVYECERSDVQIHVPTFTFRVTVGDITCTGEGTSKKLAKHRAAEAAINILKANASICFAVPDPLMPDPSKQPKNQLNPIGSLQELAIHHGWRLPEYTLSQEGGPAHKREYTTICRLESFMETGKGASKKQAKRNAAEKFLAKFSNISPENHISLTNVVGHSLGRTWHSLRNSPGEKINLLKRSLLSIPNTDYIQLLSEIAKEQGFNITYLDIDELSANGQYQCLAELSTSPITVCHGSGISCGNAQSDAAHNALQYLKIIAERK

[7] = molecular target: T5, PACT T34S (dominant DYT16 mutant), O75569
T5 chain: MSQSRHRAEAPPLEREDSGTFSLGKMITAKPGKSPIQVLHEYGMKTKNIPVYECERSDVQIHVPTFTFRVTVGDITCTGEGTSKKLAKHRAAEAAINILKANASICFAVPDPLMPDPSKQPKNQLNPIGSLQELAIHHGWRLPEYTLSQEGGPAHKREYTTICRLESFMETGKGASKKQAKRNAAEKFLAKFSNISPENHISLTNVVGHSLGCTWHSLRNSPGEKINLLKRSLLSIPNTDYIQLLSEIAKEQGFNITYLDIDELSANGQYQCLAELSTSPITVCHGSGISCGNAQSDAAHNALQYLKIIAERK

[8] = molecular target: T6, wild type (wt) PACT, O75569
T6 chain: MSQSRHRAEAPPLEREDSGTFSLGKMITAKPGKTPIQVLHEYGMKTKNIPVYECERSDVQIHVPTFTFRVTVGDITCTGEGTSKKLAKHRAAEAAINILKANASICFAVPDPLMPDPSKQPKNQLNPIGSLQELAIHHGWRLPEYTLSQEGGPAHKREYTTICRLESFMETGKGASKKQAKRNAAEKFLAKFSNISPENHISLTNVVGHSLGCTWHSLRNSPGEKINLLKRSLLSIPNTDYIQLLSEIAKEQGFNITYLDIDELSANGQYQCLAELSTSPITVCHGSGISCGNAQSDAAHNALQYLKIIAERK

[9] = molecular target: T7, PACT C213F (recessive DYT16 mutant), O75569
T7 chain: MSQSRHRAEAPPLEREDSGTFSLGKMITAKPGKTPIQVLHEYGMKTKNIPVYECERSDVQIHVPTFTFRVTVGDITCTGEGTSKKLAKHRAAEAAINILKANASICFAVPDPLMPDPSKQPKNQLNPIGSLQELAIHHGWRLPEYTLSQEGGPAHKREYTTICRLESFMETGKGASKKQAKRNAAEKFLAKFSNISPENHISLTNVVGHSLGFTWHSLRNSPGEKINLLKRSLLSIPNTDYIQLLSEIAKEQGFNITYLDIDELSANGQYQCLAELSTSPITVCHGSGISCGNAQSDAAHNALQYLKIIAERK

[10] = molecular target: T8, PACT C77S (recessive DYT16 mutant), O75569
T8 chain: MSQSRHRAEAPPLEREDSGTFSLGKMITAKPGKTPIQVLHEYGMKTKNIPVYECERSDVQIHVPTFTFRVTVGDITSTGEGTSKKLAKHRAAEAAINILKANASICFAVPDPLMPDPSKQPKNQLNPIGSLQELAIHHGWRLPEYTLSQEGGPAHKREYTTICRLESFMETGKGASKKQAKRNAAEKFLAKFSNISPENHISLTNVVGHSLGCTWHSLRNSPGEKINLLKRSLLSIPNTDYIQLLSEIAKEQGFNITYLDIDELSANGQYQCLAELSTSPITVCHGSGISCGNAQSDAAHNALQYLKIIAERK

binding result [1]: binds
B1: wild type (wt) PACT (other, UniProt O75569 1-313, looked up)
chain: MSQSRHRAEAPPLEREDSGTFSLGKMITAKPGKTPIQVLHEYGMKTKNIPVYECERSDVQIHVPTFTFRVTVGDITCTGEGTSKKLAKHRAAEAAINILKANASICFAVPDPLMPDPSKQPKNQLNPIGSLQELAIHHGWRLPEYTLSQEGGPAHKREYTTICRLESFMETGKGASKKQAKRNAAEKFLAKFSNISPENHISLTNVVGHSLGCTWHSLRNSPGEKINLLKRSLLSIPNTDYIQLLSEIAKEQGFNITYLDIDELSANGQYQCLAELSTSPITVCHGSGISCGNAQSDAAHNALQYLKIIAERK
notes: also called Myc-PACT; flag-PACT

Binder: B2
binding result [1]: binds
fold higher interaction than wt PACT-wt PACT [2]: ~9 fold

binding result [1]: binds
B3: PACT C213R (recessive DYT16 mutant) (other, UniProt O75569 1-313, looked up)
chain: MSQSRHRAEAPPLEREDSGTFSLGKMITAKPGKTPIQVLHEYGMKTKNIPVYECERSDVQIHVPTFTFRVTVGDITCTGEGTSKKLAKHRAAEAAINILKANASICFAVPDPLMPDPSKQPKNQLNPIGSLQELAIHHGWRLPEYTLSQEGGPAHKREYTTICRLESFMETGKGASKKQAKRNAAEKFLAKFSNISPENHISLTNVVGHSLGRTWHSLRNSPGEKINLLKRSLLSIPNTDYIQLLSEIAKEQGFNITYLDIDELSANGQYQCLAELSTSPITVCHGSGISCGNAQSDAAHNALQYLKIIAERK
notes: as for B2

Binder: B4
binding result [3]: binds
binding result [1]: binds

B5: PKR (protein)
chain: MAGDLSAGFFMEELNTYRQKQGVVLKYQELPNSGPPHDRRFTFQVIIDGREFPEGEGRSKKEAKNAAAKLAVEILNKEKKAVSPLLLTTTNSSEGLSMGNYIGLINRIAQKKRLTVNYEQCASGVHGPEGFHYKCKMGQKEYSIGTGSTKQEAKQLAAKLAYLQILSEETSVKSDYLSSGSFATTCESQSNSLVTSTLASESSSEGDFSADTSEINSNSDSLNSSSLLMNGLRNNQRKAKRSLAPRFDLPDMKETKYTVDKRFGMDFKEIELIGSGGFGQVFKAKHRIDGKTYVIKRVKYNNEKAEREVKALAKLDHVNIVHYNGCWDGFDYDPETSDDSLESSDYDPENSKNSSRSKTKCLFIQMEFCDKGTLEQWIEKRRGEKLDKVLALELFEQITKGVDYIHSKKLIHRDLKPSNIFLVDTKQVKIGDFGLVTSLKNDGKRTRSKGTLRYMSPEQISSQDYGKEVDLYALGLILAELLHVCDTAFETSKFFTDLRDGIISDIFDKKEKTLLQKLLSKKPEDRPNTSEILRTLTVWKKSPEKNERHTC
PKR autophosphorylation, in vitro PKR kinase activity assay [4]: In all cases, recessive mutations demonstrated a slightly increased capacity to activate PKR ... as compared to wt PACT
PKR autophosphorylation, in vitro PKR kinase activity assay [5]: The dominant mutants (lower panel) also showed enhanced ability to activate PKR at 400 µg
PKR autophosphorylation, in vitro PKR kinase activity assay [6]: In all cases, recessive mutations demonstrated a slightly increased capacity to activate PKR ... as compared to wt PACT
PKR autophosphorylation, in vitro PKR kinase activity assay [7]: The dominant mutants (lower panel) also showed enhanced ability to activate PKR at 400 µg
PKR autophosphorylation, in vitro PKR kinase activity assay [8]: When the purified recombinant PACT proteins were added, a dose dependent increase (left: 400 µg, right: 4.0 ng) in activated autophosphorylated PKR was observed
PKR autophosphorylation, in vitro PKR kinase activity assay [9]: In all cases, recessive mutations demonstrated a slightly increased capacity to activate PKR ... as compared to wt PACT
PKR autophosphorylation, in vitro PKR kinase activity assay [10]: In all cases, recessive mutations demonstrated a slightly increased capacity to activate PKR ... as compared to wt PACT
